Patent publication US20240124563A1

Experiments:
[1] = biological target: human MSLN protein endogenously expressed on tumor cells (Hela, OVCAR3) (human) (UniProt Q13421); test: FACS, OVCAR3 cells, antibody 0.16 nM
[2] = biological target: human MSLN protein endogenously expressed on tumor cells (Hela, OVCAR3) (human) (UniProt Q13421); test: FACS, OVCAR3 cells, antibody 0.032 nM
[3] = biological target: human MSLN full-length protein, recombinant, on CHO-K1 or HEK293T cells (human) (UniProt Q13421); test: FACS, CHO-K1-hMSLN-2C8 cells
Sequence of human MSLN full-length protein, recombinant, on CHO-K1 or HEK293T cells (human) (Q13421 other isoform, or with tags, fused parts or gaps limits assumed): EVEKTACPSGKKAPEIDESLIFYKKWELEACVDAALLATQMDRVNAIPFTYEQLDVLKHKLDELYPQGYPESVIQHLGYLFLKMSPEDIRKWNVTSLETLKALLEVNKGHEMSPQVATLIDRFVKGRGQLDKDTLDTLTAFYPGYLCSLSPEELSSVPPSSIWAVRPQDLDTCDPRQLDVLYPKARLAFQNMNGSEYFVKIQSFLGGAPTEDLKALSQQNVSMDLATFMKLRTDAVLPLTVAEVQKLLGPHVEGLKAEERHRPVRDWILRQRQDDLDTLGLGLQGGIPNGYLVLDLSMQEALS

[4] = biological target: monkey MSLN full-length protein on HEK293T cells (monkey); test: FACS, HEK293T-monkey-MSLN cells, antibody 20 nM
[5] = biological target: human MSLN full-length protein, recombinant, on CHO-K1 or HEK293T cells (human) (UniProt Q13421); test: competitive FACS on CHO-K1-human MSLN-2C8 cells vs Biotin-Tab142; competitor at 0.16 nM
[6] = biological target: human MSLN protein endogenously expressed on tumor cells (Hela, OVCAR3) (human) (UniProt Q13421); test: FACS, OVCAR3 cells, antibody 20 nM
[7] = biological target: human MSLN protein endogenously expressed on tumor cells (Hela, OVCAR3) (human) (UniProt Q13421); test: FACS, OVCAR3 cells, antibody 4 nM
[8] = biological target: human MSLN full-length protein, recombinant, on CHO-K1 or HEK293T cells (human) (UniProt Q13421); test: FACS, HEK293T-hMSLN-B8 cells, antibody 0.2 nM
[9] = biological target: monkey MSLN full-length protein on HEK293T cells (monkey); test: FACS, HEK293T-monkey MSLN cells
[10] = biological target: human MSLN protein endogenously expressed on tumor cells (Hela, OVCAR3) (human) (UniProt Q13421); test: FACS, Hela cells
[11] = biological target: human MSLN full-length protein, recombinant, on CHO-K1 or HEK293T cells (human) (UniProt Q13421); test: competitive FACS on CHO-K1-human MSLN-2C8 cells vs Biotin-Tab131; competitor at 0.0128 nM
[12] = biological target: human MSLN-R3-rFc protein (human) (UniProt Q13421); test: ELISA, antibody 100 nM
[13] = biological target: human MSLN full-length protein, recombinant, on CHO-K1 or HEK293T cells (human) (UniProt Q13421); test: competitive FACS on CHO-K1-human MSLN-2C8 cells vs Biotin-Tab142; competitor at 1.6 nM
[14] = biological target: human MSLN full-length protein, recombinant, on CHO-K1 or HEK293T cells (human) (UniProt Q13421); test: FACS, HEK293T-hMSLN-B8 cells, antibody 20 nM
[15] = biological target: chimeric human MSLN-R3 / chicken MSLN-R1-2 protein on HEK293T cells (clone A5) (chicken; human); test: FACS, HEK293T-chickR1-2/hR3-A5 cells
Sequence of chimeric human MSLN-R3 / chicken MSLN-R1-2 protein on HEK293T cells (clone A5) (chicken; human) (Q13421 495-614, change not shown): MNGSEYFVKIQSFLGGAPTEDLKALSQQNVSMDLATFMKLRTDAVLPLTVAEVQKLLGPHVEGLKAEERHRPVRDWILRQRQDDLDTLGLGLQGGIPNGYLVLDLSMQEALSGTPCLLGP

[16] = biological target: monkey MSLN full-length protein on HEK293T cells (monkey); test: FACS, HEK293T-monkey-MSLN cells, antibody 4 nM
[17] = biological target: human MSLN full-length protein on transfected cells (CHO-K1-hMSLN clones 2C8, 2D11, 2C5; HEK293T-hMSLN clones B8, 2A4, 2A7) (human) (UniProt Q13421); test: FACS, CHO-K1-hMSLN-2C8 cells, antibody 0.0064 nM
Sequence of human MSLN full-length protein on transfected cells (CHO-K1-hMSLN clones 2C8, 2D11, 2C5; HEK293T-hMSLN clones B8, 2A4, 2A7) (human) (Q13421 other isoform, or with tags, fused parts or gaps limits assumed): as the sequence (Q13421 other isoform, or with tags, fused parts or gaps limits assumed) above

[18] = biological target: human MSLN full-length protein on transfected cells (CHO-K1-hMSLN clones 2C8, 2D11, 2C5; HEK293T-hMSLN clones B8, 2A4, 2A7) (human) (UniProt Q13421); test: FACS, CHO-K1-hMSLN-2C8 cells, antibody 0.16 nM
[19] = biological target: human MSLN-R3-rFc protein (human) (UniProt Q13421); test: ELISA, antibody 0.032 nM
[20] = biological target: chimeric human MSLN-R3 / chicken MSLN-R1-2 protein on HEK293T cells (clone A5) (chicken; human); test: FACS, HEK293T-hR3/chickR1-2-A5 cells, antibody 0.2 nM
[21] = biological target: human MSLN full-length protein, recombinant, on CHO-K1 or HEK293T cells (human) (UniProt Q13421); test: competitive FACS on CHO-K1-human MSLN-2C8 cells vs Biotin-Tab131; competitor at 40 nM
[22] = biological target: human MSLN full-length protein, recombinant, on CHO-K1 or HEK293T cells (human) (UniProt Q13421); test: FACS, HEK293T-hMSLN-B8 cells
[23] = biological target: human MSLN full-length protein, recombinant, on CHO-K1 or HEK293T cells (human) (UniProt Q13421); test: competitive FACS on CHO-K1-human MSLN-2C8 cells vs Biotin-Tab142; competitor at 0.064 nM
[24] = biological target: monkey MSLN full-length protein on HEK293T cells (monkey); test: FACS, HEK293T-monkey-MSLN cells, antibody 100 nM
[25] = biological target: human MSLN full-length protein, recombinant, on CHO-K1 or HEK293T cells (human) (UniProt Q13421); test: competitive FACS on CHO-K1-human MSLN-2C8 cells vs Biotin-Tab142; competitor at 0.32 nM
[26] = biological target: human MSLN full-length protein, recombinant, on CHO-K1 or HEK293T cells (human) (UniProt Q13421); test: competitive FACS on CHO-K1-human MSLN-2C8 cells vs Biotin-Tab131; competitor at 0.064 nM
[27] = biological target: chimeric human MSLN-R3 / chicken MSLN-R1-2 protein on HEK293T cells (clone A5) (chicken; human); test: FACS, HEK293T-hR3/chickR1-2-A5 cells, antibody 20 nM
[28] = biological target: human MSLN full-length protein, recombinant, on CHO-K1 or HEK293T cells (human) (UniProt Q13421); test: competitive FACS on CHO-K1-human MSLN-2C8 cells vs Biotin-Tab142; competitor at 200 nM

Sequence of human MSLN protein endogenously expressed on tumor cells (Hela, OVCAR3) (human) (Q13421 other isoform, or with tags, fused parts or gaps): as the sequence (Q13421 other isoform, or with tags, fused parts or gaps limits assumed) above, with P14R counted along it

hIgG1 (antibody) gave an FACS signal (MFI) [1] of 74, an FACS signal (MFI) [2] of 75 and a Max MFI [3] of 80. It also gave an FACS signal (MFI) [4] of 84, an MFI of Biotin-Tab142 [5] of 43600 and an FACS signal (MFI) [6] of 78. It also gave an MFI [6] of 329, an FACS signal (MFI) [7] of 74 and an MFI [8] of 65. For the same substance, the Max MFI [9] was 137, the Max MFI [10] was 75 and the MFI of Biotin-Tab131 [11] was 12600. It also gave an OD450 nm [12] of 0.21, an MFI of Biotin-Tab142 [13] of 22700 and an MFI [14] of 68. The Max MFI [15] was 115, the FACS signal (MFI) [16] was 85 and the FACS signal (MFI) [17] was 65. It also gave an FACS signal (MFI) [18] of 59, an OD450 nm [19] of 0.11 and an MFI [20] of 73. For the same substance, the MFI of Biotin-Tab131 [21] was 12500, the Max MFI [22] was 77 and the MFI of Biotin-Tab142 [23] was 23600. The FACS signal (MFI) [24] was 127, the MFI of Biotin-Tab142 [25] was 23300 and the MFI of Biotin-Tab131 [26] was 12500. It also gave an MFI [27] of 74 and an MFI of Biotin-Tab142 [28] of 24000.
